Test results published in publication PMC4005679, “In vitro assembly and activity of an archaeal CRISPR-Cas type I-A Cascade interference complex” (Nucleic Acids Research, 2014).

B1: crRNA 5.13 (ssRNA)
RNA: AUUGAAAGAUCGCUUGUCCAACCGGGCUCCUCUAUAUGUCGUCAUUAGCUUAGA
modifications: 5'-OH from hammerhead cleavage before labeling
B2: crRNA 5.2 (ssRNA)
RNA: AUUGAAAGCGUUGAUGCGGCCGCGACUGGCUGACUCAGCUAUUACGUUGA
modifications: 5'-OH from hammerhead cleavage before labeling

How the values were obtained:
[1] = biological target: T1, Csa5;Cas7;Cas5a;Cas3';Cas3'';Cas8a2 (Thermoproteus tenax Kra1;Thermoproteus …, UniProt G4RJZ0;G4RJZ1;G4RJZ2;G4RJZ3;G4RJZ4;G4RJZ5 1-130;1-329;1-226;1-566;1-226;1-361, |||||); assay: EMSA; yeast RNA competitor; Ca2+ during reconstitution; 0.125-2 uM Cascade; 100 mM HEPES/KOH pH 7, 100 mM NaCl, 10 mM beta-mercaptoethanol, 50 ng yeast RNA, 30 min at 70 C (Cascade; 6% native TBE-PAGE); Cas7 alone without yeast RNA at 80 C, agarose gel; 2-4 nM labeled crRNA; conditions: protein: recombinant;recombinant;recombinant;recombinant;recombinant;recombinant; tags: untagged;His-SUMO tag cleaved off;;;;; label: 5'-32P; single strand
[2] = biological target: T1, Csa5;Cas7;Cas5a;Cas3';Cas3'';Cas8a2; assay: EMSA; yeast RNA competitor; Ca2+ during reconstitution; 0.125-5 uM Cascade; affinity similar to crRNA 5.13; 100 mM HEPES/KOH pH 7, 100 mM NaCl, 10 mM beta-mercaptoethanol, 50 ng yeast RNA, 30 min at 70 C (Cascade; 6% native TBE-PAGE); Cas7 alone without yeast RNA at 80 C, agarose gel; 2-4 nM labeled crRNA; conditions: protein: recombinant;recombinant;recombinant;recombinant;recombinant;recombinant; tags: untagged;His-SUMO tag cleaved off;;;;; label: 5'-32P (EMSA); unlabeled in SEC; single strand

| Binder | binding result [1] | binding result [2] |
| --- | --- | --- |
| B1 | binds |  |
| B2 |  | binds |
